Data reported in patent US20050222390A1 (IMMATICS BIOTECHNOLOGIES, published 2005).

B1: SVASTITGV (adipose differentiation-related protein 129-137) (peptide)
peptide: SVASTITGV
notes: Also synthesized (Fmoc) for tetramers and pulsing; also called adipophilin-peptide; adipophilin fragment
B2: ALLNIKVKL (keratin 18 365-373) (peptide)
peptide: ALLNIKVKL
notes: Found in tumors of both patients RCC01 and RCC13; also called keratin 18 peptide
B3: YVDPVITSI (met proto-oncogen 654-662) (peptide)
peptide: YVDPVITSI
notes: Found in tumors of both patients RCC01 and RCC13; also synthesized (Fmoc) for tetramers and pulsing; also called c-Met-peptide; c-Met-protooncogene-fragment

Biological target: T1, recombinant HLA-A*0201-molecules (human)
T1 construct: Folded in vitro with the peptides, purified by gel filtration
Assay: in vitro folding of HLA-A*0201 with peptide, gel filtration

Binding result, binds:
B1
B2
B3
